This passage reports Leakage activity, Relative activity of maturated deamidase (% initial rate) and NanoDSF thermal unfolding temperature results from US20250215412A1 (NOVOZYMES A S, published 2025).

This assay concerns the target T1, Chryseobacterium sp-62563 deamidase polypeptide (second polypeptide, deamidase domain), wildtype (Chryseobacterium sp-62563).
T1 sequence: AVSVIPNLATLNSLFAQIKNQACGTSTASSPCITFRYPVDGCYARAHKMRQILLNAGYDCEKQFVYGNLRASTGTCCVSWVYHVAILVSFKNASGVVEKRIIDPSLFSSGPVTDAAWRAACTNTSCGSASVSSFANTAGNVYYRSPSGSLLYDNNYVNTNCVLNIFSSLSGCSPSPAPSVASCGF
The assay can be described thus: cell-based or functional assay.

B1: Chryseobacterium sp-62563 propeptide F99D (protein)
chain: NQDPNLVAKESNETAMKDFGKTVPVGIEKEDGKFKISFMVTAQPYEIKDSKENAAYISMIKTAVENETPIHVFLKANTNEIAKVDKATDDDIRYFKSVDTKEVKEENRK
For B1, the Leakage activity is 9% and the Relative activity of maturated deamidase (% initial rate) turned out to be 69.

B2: Chryseobacterium sp-62563 propeptide F99V (protein)
chain: NQDPNLVAKESNETAMKDFGKTVPVGIEKEDGKFKISFMVTAQPYEIKDSKENAAYISMIKTAVENETPIHVFLKANTNEIAKVDKATDDDIRYFKSVVTKEVKEENRK
Consider B2, for which the Relative activity of maturated deamidase (% initial rate) is greater than 100.

B3: Chryseobacterium sp-62563 propeptide V98S (protein)
chain: NQDPNLVAKESNETAMKDFGKTVPVGIEKEDGKFKISFMVTAQPYEIKDSKENAAYISMIKTAVENETPIHVFLKANTNEIAKVDKATDDDIRYFKSSFTKEVKEENRK
As to B3, the Relative activity of maturated deamidase (% initial rate) was found to be 98.

B4: Chryseobacterium sp-62563 propeptide P69G (protein)
chain: NQDPNLVAKESNETAMKDFGKTVPVGIEKEDGKFKISFMVTAQPYEIKDSKENAAYISMIKTAVENETGIHVFLKANTNEIAKVDKATDDDIRYFKSVFTKEVKEENRK
Take B4: the NanoDSF thermal unfolding temperature worked out at 77 ° C and the Relative activity of maturated deamidase (% initial rate) came out at 35.

B5: Chryseobacterium sp-62563 propeptide F99W (protein)
chain: NQDPNLVAKESNETAMKDFGKTVPVGIEKEDGKFKISFMVTAQPYEIKDSKENAAYISMIKTAVENETPIHVFLKANTNEIAKVDKATDDDIRYFKSVWTKEVKEENRK
In turn, B5 had a Relative activity of maturated deamidase (% initial rate) of 81.

B6: Chryseobacterium sp-62563 propeptide F99Y (protein)
chain: NQDPNLVAKESNETAMKDFGKTVPVGIEKEDGKFKISFMVTAQPYEIKDSKENAAYISMIKTAVENETPIHVFLKANTNEIAKVDKATDDDIRYFKSVYTKEVKEENRK
B6 showed a Relative activity of maturated deamidase (% initial rate) of 85.

B7: Chryseobacterium sp-62563 propeptide F99R (protein)
chain: NQDPNLVAKESNETAMKDFGKTVPVGIEKEDGKFKISFMVTAQPYEIKDSKENAAYISMIKTAVENETPIHVFLKANTNEIAKVDKATDDDIRYFKSVRTKEVKEENRK
Molecule B7 showed a Leakage activity of 0% and a Relative activity of maturated deamidase (% initial rate) of 76.

B8: Chryseobacterium sp-62563 propeptide F99P (protein)
chain: NQDPNLVAKESNETAMKDFGKTVPVGIEKEDGKFKISFMVTAQPYEIKDSKENAAYISMIKTAVENETPIHVFLKANTNEIAKVDKATDDDIRYFKSVPTKEVKEENRK
B8 gave a Relative activity of maturated deamidase (% initial rate) of 33.

B9: Chryseobacterium sp-62563 propeptide F99K (protein)
chain: NQDPNLVAKESNETAMKDFGKTVPVGIEKEDGKFKISFMVTAQPYEIKDSKENAAYISMIKTAVENETPIHVFLKANTNEIAKVDKATDDDIRYFKSVKTKEVKEENRK
For the molecule B9, the Leakage activity was 4%, the NanoDSF thermal unfolding temperature is 75.4 ° C and the Relative activity of maturated deamidase (% initial rate) was greater than 100.

B10: Chryseobacterium sp-62563 propeptide Y45I (protein)
chain: NQDPNLVAKESNETAMKDFGKTVPVGIEKEDGKFKISFMVTAQPIEIKDSKENAAYISMIKTAVENETPIHVFLKANTNEIAKVDKATDDDIRYFKSVFTKEVKEENRK
For B10, the NanoDSF thermal unfolding temperature came to 76.4 ° C and the Relative activity of maturated deamidase (% initial rate) was greater than 100.

B11: Chryseobacterium sp-62563 propeptide F99L (protein)
chain: NQDPNLVAKESNETAMKDFGKTVPVGIEKEDGKFKISFMVTAQPYEIKDSKENAAYISMIKTAVENETPIHVFLKANTNEIAKVDKATDDDIRYFKSVLTKEVKEENRK
As to B11, the Relative activity of maturated deamidase (% initial rate) was 46.

B12: Chryseobacterium sp-62563 propeptide V98N (protein)
chain: NQDPNLVAKESNETAMKDFGKTVPVGIEKEDGKFKISFMVTAQPYEIKDSKENAAYISMIKTAVENETPIHVFLKANTNEIAKVDKATDDDIRYFKSNFTKEVKEENRK
B12: the Relative activity of maturated deamidase (% initial rate) was greater than 100.

B13: Chryseobacterium sp-62563 propeptide P69L (protein)
chain: NQDPNLVAKESNETAMKDFGKTVPVGIEKEDGKFKISFMVTAQPYEIKDSKENAAYISMIKTAVENETLIHVFLKANTNEIAKVDKATDDDIRYFKSVFTKEVKEENRK
Take B13: the NanoDSF thermal unfolding temperature is 81.5 ° C and the Relative activity of maturated deamidase (% initial rate) was found to be 43.

B14: Chryseobacterium sp-62563 propeptide V98R (protein)
chain: NQDPNLVAKESNETAMKDFGKTVPVGIEKEDGKFKISFMVTAQPYEIKDSKENAAYISMIKTAVENETPIHVFLKANTNEIAKVDKATDDDIRYFKSRFTKEVKEENRK
In turn, B14 came in with a Relative activity of maturated deamidase (% initial rate) greater than 100.

B15: Chryseobacterium sp-62563 propeptide P69D (protein)
chain: NQDPNLVAKESNETAMKDFGKTVPVGIEKEDGKFKISFMVTAQPYEIKDSKENAAYISMIKTAVENETDIHVFLKANTNEIAKVDKATDDDIRYFKSVFTKEVKEENRK
In turn, B15 registered a NanoDSF thermal unfolding temperature of 70.6 ° C and a Relative activity of maturated deamidase (% initial rate) of 82.

B16: Chryseobacterium sp-62563 propeptide F99H (protein)
chain: NQDPNLVAKESNETAMKDFGKTVPVGIEKEDGKFKISFMVTAQPYEIKDSKENAAYISMIKTAVENETPIHVFLKANTNEIAKVDKATDDDIRYFKSVHTKEVKEENRK
As to B16, the Relative activity of maturated deamidase (% initial rate) is greater than 100.

B17: Chryseobacterium sp-62563 propeptide Y45R (protein)
chain: NQDPNLVAKESNETAMKDFGKTVPVGIEKEDGKFKISFMVTAQPREIKDSKENAAYISMIKTAVENETPIHVFLKANTNEIAKVDKATDDDIRYFKSVFTKEVKEENRK
B17: the NanoDSF thermal unfolding temperature stood at 78.1 ° C.

B18: Chryseobacterium sp-62563 propeptide V98Q (protein)
chain: NQDPNLVAKESNETAMKDFGKTVPVGIEKEDGKFKISFMVTAQPYEIKDSKENAAYISMIKTAVENETPIHVFLKANTNEIAKVDKATDDDIRYFKSQFTKEVKEENRK
For the molecule B18, the Relative activity of maturated deamidase (% initial rate) is greater than 100.

B19: Chryseobacterium sp-62563 propeptide V98T (protein)
chain: NQDPNLVAKESNETAMKDFGKTVPVGIEKEDGKFKISFMVTAQPYEIKDSKENAAYISMIKTAVENETPIHVFLKANTNEIAKVDKATDDDIRYFKSTFTKEVKEENRK
In turn, B19 came in with a Relative activity of maturated deamidase (% initial rate) of 70.

B20: Chryseobacterium sp-62563 propeptide Y45M (protein)
chain: NQDPNLVAKESNETAMKDFGKTVPVGIEKEDGKFKISFMVTAQPMEIKDSKENAAYISMIKTAVENETPIHVFLKANTNEIAKVDKATDDDIRYFKSVFTKEVKEENRK
B20 returned a NanoDSF thermal unfolding temperature of 79 ° C and a Relative activity of maturated deamidase (% initial rate) of 40.

B21: Chryseobacterium sp-62563 propeptide F99Q (protein)
chain: NQDPNLVAKESNETAMKDFGKTVPVGIEKEDGKFKISFMVTAQPYEIKDSKENAAYISMIKTAVENETPIHVFLKANTNEIAKVDKATDDDIRYFKSVQTKEVKEENRK
With B21, the Leakage activity worked out at 4% and the Relative activity of maturated deamidase (% initial rate) came to 48.

B22: Chryseobacterium sp-62563 propeptide F99I (protein)
chain: NQDPNLVAKESNETAMKDFGKTVPVGIEKEDGKFKISFMVTAQPYEIKDSKENAAYISMIKTAVENETPIHVFLKANTNEIAKVDKATDDDIRYFKSVITKEVKEENRK
Turning to B22, the Relative activity of maturated deamidase (% initial rate) was 33.
